Assay results reported in PMC11516162, “A Novel Antigen Design Strategy to Isolate Single‐Domain Antibodies that Target Human Nav1.7 and Reduce Pain in Animal Models” (Advanced Science, 2024).
Where two headings read alike, the source gives them in different places.

Assays:
[1] = target: mouse Nav1.7 (mouse (endogenous in CD-1 mice)) (UniProt Q62205)
[2] = target: rat, mouse and human FC5‐DIE3IR; assay: SPR; Biacore T200, 25 °C, HBS‐EP+ (10 mM HEPES pH 7.4, 150 mM NaCl, 3 mM EDTA, 0.05% P20); FC5‐DIE3IR and FC5 amine coupled (300–400 RU) on CM5; VHH DI‐D monomer fractions flowed at 312 nM to 5 µM, single cycle kinetics; KD by steady state analysis
human FC5‐DIE3IR [3] = target: T1, human FC5‐DIE3IR (Homo sapiens, chimera, glycosylated (about up to 50%)); assay: as above; conditions: both partners purified
T1 construct: llama VHH FC5 from its N-terminus to residue 101 (three CDR3 residues kept on the N-terminal side of the graft); human Nav1.7 alpha subunit, 70 residues of extracellular loop 3 of domain DI (DIE3IR), put in place of Ser102-Leu107 of the CDR3 of FC5; llama VHH FC5 from residue 108 to its C-terminus (four CDR3 residues kept on the C-terminal side of the graft); Two disulfide bonds in the grafted …

rat FC5‐DIE3IR = target: T2, rat FC5‐DIE3IR (Rattus norvegicus, UniProt O08562, chimera); assay: as above; conditions: both partners purified
T2 construct: llama VHH FC5 N-terminal part, as the first part of m2; rat Nav1.7 alpha subunit, the stretch equivalent to the human DIE3IR domain; llama VHH FC5 C-terminal part, as the last part of m2; source: cloned as the human one (pTT5); SEC purified (Superdex 75) for SPR

mouse FC5‐DIE3IR = target: T3, mouse FC5‐DIE3IR (Mus musculus, UniProt Q62205, chimera); assay: as above; conditions: both partners purified
T3 construct: llama VHH FC5 N-terminal part, as the first part of m2; mouse Nav1.7 alpha subunit, the stretch equivalent to the human DIE3IR domain; llama VHH FC5 C-terminal part, as the last part of m2; source: cloned as the human one (pTT5); SEC purified (Superdex 75) for SPR

human FC5‐DIE3IR [4] = target: T1, human FC5‐DIE3IR; assay: SPR; Biacore T200, 25 °C, HBS-EP+ (10 mM HEPES pH 7.4, 150 mM NaCl, 3 mM EDTA, 0.05% P20); FC5-DIE3IR (human, mouse, rat) and FC5 amine coupled (300-400 RU) on CM5; SEC-purified monomeric VHH DI-D flowed over at 312 nM to 5 µM, single cycle kinetics; KD by steady state analysis
[5] = target: Mouse FC5-DIE3IR (llama | mouse); assay: as above
[6] = target: Rat FC5-DIE3IR (llama | rat); assay: as above
human FC5‐DIE3IR [7] = target: T1, human FC5‐DIE3IR; assay: as above; remark: listed apart in the source
[8] = target: Mouse FC5-DIE3IR (llama | mouse); assay: as above; remark: listed apart in the source
[9] = target: Rat FC5-DIE3IR (llama | rat); assay: as above; remark: listed apart in the source
human FC5‐DIE3IR [10] = target: T1, human FC5‐DIE3IR; assay: as above; remark: listed apart in the source
[11] = target: Mouse FC5-DIE3IR (llama | mouse); assay: as above; remark: listed apart in the source

B1: VHH DI‐D (VHH)
VHH: QVKLEESGGGLVQPGGSLKLSCVASGFAFSSAPMDWVRKAPGKDVEWLSTIESDQDHTIYYANSVKGRFTISRDDVQNILYLQMNDLKIEDTATYYCQKRGEKKTRGQGTQVTVSS
notes: CDR3 of VHH DI-D as printed in the discussion; Isolated from a naive llama, alpaca and camel phage library (LAC-M) by panning on FC5-DIE3IR; source: E. coli, purified by IMAC (gene synthesized and cloned by GenScript; pSJF2 expression vector); SEC-purified monomer fractions for SPR
[1]
  time mice spend in pain behaviors, mouse OD1 model, VHH DI‐D (50 µg) pre‐mixed 30 min with FC5‐DIE3IR (200 µg): no reduction: 312 s
[2]
  Kd: 1560 to 1720 nM
Human FC5‐DIE3IR [3]
  binding result: binds
Rat FC5‐DIE3IR
  binding result: binds
Mouse FC5‐DIE3IR
  binding result: binds
Human FC5‐DIE3IR [4]
  Kd: 1700 nM
[5]
  Kd: 1660 nM
[6]
  Kd: 1560 nM
Human FC5‐DIE3IR [7]
  Kd: 1720 nM
[8]
  Kd: 1700 nM
[9]
  Kd: 1590 nM
Human FC5‐DIE3IR [10]
  Kd: 1710 nM
[11]
  Kd: 1680 nM
